Measurements taken from article PMC8866119 (Nature, 2021).

B1: DH1047 (antibody, V domains shown)
VH: QVQLVQSGAEVKKPGASVQVSCQASANTFTNHYIHWVRQAPGQGLEWMGIIYPTGGNTIYAQGFQGRVTMTRDTSLNTIYLELSSLRSEDTAVYYCARDVRVDDSWSGYDLLSGGTYFDYWGQGTLVTVSS
VL: not shown
B2: COV2-2103 (antibody, V domains shown)
VH: EVQLVESGGGLVQPGGSLRLSCAASGFTFSRHWMTWVRQAPGKGLEWVANIKQDGSEKYYVDSVKGRLTISRDNAKNSLYLQMNSLRAEDTAVYYCARLGFYYGGADYWGQGTLVTVSS
VL: NFMLTQPHSVSESPGKTVTISCTGSSGSIASNYVQWYQQRPGSAPTTVISEDNQRPSGVPDRFSGSIDSSSNSASLTISGLKTEDEADYYCQSYDGINRAWVFGGGTKLTVL
B3: BD55-1237 (antibody, V domains shown)
VH: QVQLVESGGGVVQPGRSLRLSCATSDFTSNTYGIHWVRQAPGKGLEWVAVIWSDGSHEYYADSVKGRFTISRDNSKNTVYLQMASLRPEDTALYYCAKSPWLRGSFDVWGQGTVVPVSS
VL: NFLLTQPHSVSESPGKTVTISCSGSSGYIASNYVQWYQQRPGSAPIVVMYEDNQRPSGVPDRFSGSIDSSSNSASLTISGLKTEDEADYYCQSYDSDNRAWVFGGGTKLTVL
B4: BD55-5259 (antibody, V domains shown)
VH: QITLKESGPTLVKPTQTLTLTCTFSGFSLTMPEVGVAWVRQPPGKALEWLALIYGDDNKRYSPSLESRLTITKDSSKNQVVLTMTNLDSVDTATYYCARRKFLWDSDPVAFDYWGLGTLVIVSS
VL: DIVMTQTPLSLPVTLGQPASISCRSSQSLVHIDGNIYLSWLQQRPGQPPRLLIYKISNRFSGVPDRFSGSGSGTDFTLKISRVEAEDVGVYYCMQATQFPHEMYTFGQGTKLEIR
B5: BD55-5226 (antibody, V domains shown)
VH: EVQLVESGGGLVKPGGSLRLSCAASGFTFSSYSMNWVRQAPGKGLEWVSSISMTSSYRHYADSVRGRFTISRDNANNSLFLQMNSLRAEDTAVYFCARDSNLRTGDANDYWGQGTLVTVSS
VL: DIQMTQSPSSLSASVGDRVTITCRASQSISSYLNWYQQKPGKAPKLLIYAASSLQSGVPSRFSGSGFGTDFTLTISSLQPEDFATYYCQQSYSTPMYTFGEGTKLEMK
B6: BD55-3500 (antibody, V domains shown)
VH: QVQLVESGGGVVQPGRSLRLSCAASGFIFSRYDIHWVRQTPGKGLEWVALIRYDGSDKYYADSVKGRFTISRDNSKNTLYLQMNSLRVEDTAVYYCAKEGIQGYSGYDYFWTGFYFDYWGQGTLVTVSS
VL: not shown
B7: BD-801 (antibody, V domains shown)
VH: DVQLVESGGGLVQPGGSRRLSCAASGFMFSSYWMNWVRQAPGKGLEWVASIKEDGSEKYYVDSVKGRFTISRDNAKNSLFLQMNSLRAEDTAVYYCARKCRGYYDRSGYYYKCAFDIWGQGTMVTVSS
VL: PYVLTQPPSVSVAPGKTARITCGGNNLGTNSVHWYQQKPGQAPVLVMYYDSDRPSGIPERFSGSNSGNTATLTISRVDAGDEADYYCQVWDSSSDHWVFGGGTKLTVL
B8: COVA1-16 (antibody, V domains shown)
VH: QVQLVQSGAEVKKPGASVKVSCKASGYTFTSYYMHWVRQAPGQGLEWMGIINSSGGSTSYAQKFQGRVTMTRDTSTSTVYMELSSLRSEDTAVYYCARPPRNYYDRSGYYQRAEYFQHWGQGTLVTVSS
VL: DIQLTQSPSSLSASVGDRVTITCQASQDISNYLNWYQQRPGKAPKLLIYDASNLETGVPSRFSGSGSGTDFTFTISSLQPEDIATYYCQQYDNPPLTFGGGTKLEIK
B9: BD-708 (antibody, V domains shown)
VH: QVQLVESGGGVVQPGRSLRLSCAASGFTLSNYAMHWVRQAPGTGLEWVAVISDDGSIKFYADSVKGRFTISRDNSKNTLYLQMNSLRAEDTAVYYCARDGDDSSGYFFDYWGQGTLVTVSS
VL: DIQMTQSPSSLSASVGDRVTITCRASQGINNFLAWYQQKPGKAPKLLLYSASRLESGVPSRFSGSGSGTDYTLTISSLQPEDFATYYCQQYYSTLALTFGGGTKVEIK
B10: BD55-3372 (antibody, V domains shown)
VH: EVHLVESGGGLVKPGGSLRLSCAASGFTFSNYAMNWVRQAPGKGLQWVSSITGSSSFIFYADSVKGRFTIVRDNAQNSLYLQMNSLRDEDTAVYYCARERDDYDTRLDWGQGTLVTVSS
VL: QPMLTQPPSVSGAPGQTVTISCVGSSSNIGAGYEVHWYQQLPGTAPKRLLSGNSDRPSGVPDRFSGSKSGTSASLAITGLQADDEADYYCQSYDSSLSLSAVVFGGGTKLTVL
B11: COV2-2828 (antibody, V domains shown)
VH: EVQLVESGGGLVKPGGSLRLSCAASGFTFRDYSMNWVRQAPGKGLEWVSSISSGGSYIYYADSVKGRFTISRDNAKNSLYLQMNSLRAEDTAVYYCARGGSILWWLIDYWGQGTLVTVSS
VL: NFMLTQPHSVSESPGKTVTISCTGSSGSIASNYVQWYQQRPGSAPTTVIYEDNQRPSGVPDRFSGSIDSSSNSASLTISGLKTEDEADYYCQSYDSTSRVVFGGGTKLTVL
B12: BD55-5300 (antibody, V domains shown)
VH: QVQLVQSGAEVKKPGSSVKVSCKASGGSFTSHAVSWVRQAPGQGLEWMGVSIPLFGTAKYAQKFQGRVTITADESTSTVYMSLSNLRSGDTAVYYCARLFPNGTPTDLTAPSDYWGQGTLVTVSS
VL: DIQMTQSPSSLSASVGDRVTITCQASQDIGNYLNWYQQKPGKAPKLLIYDASHLETGVPSRFSGSASGTDFTLTISSLQPDDIATYYCQRYDDVPTYTFGQGTKLEIK
B13: BD55-5339 (antibody, V domains shown)
VH: EVQLVESGEGLVQPGGSLRISCAASGFTFSNYPMHWVRQAPGQGLESVSSITSNGDGTFYANSVKGRFTISRDNSKNTLYLQMGSLRTEDTALYFCAREVAEQLDCYFDLWGRGTLVTVSS
VL: DIQMTQSPSSLSASVGDRVTITCRASQSIRTYLNWYQHKPGKAPKLLIFAASSLQSGVPSRFSGSGSGTDFSLTISSLQPEDFATYYCQQSYITPPITFGQGTRLEIK
B14: BD55-5267 (antibody, V domains shown)
VH: QVQLQESGPGLVKPSGTLSLTCAVSGGSISSSNWWSWVRQPPGKGLEWIGEIYHSGSTNYNPSLKSRVTISVDKSKNKFSLKLSSVTAADTAVYFCARAGWIESGYDAFVGYFDYWGQGTLVTVSS
VL: DIQMTQSPSSLSASVGDRVTITCRASQGISSSLAWYQQKPGKAPDLLLYAASGLESGVPSRFSGSGSGTDFTLSISSLQPEDFATYYCQQYYSPPRTFGQGTKLEIK
B15: BD-692 (antibody, V domains shown)
VH: EVQLVESGGGLVQPGGSLRLSCAASGFTFSSHGMNWVRQAPGKGLEWVSYISSRDSTIYYADSVKGRFTISRDNAKNSLYLQMNSLRDEDTAVYYCARDNSDYDYSFGAYYFDYWGQGTLVTVSS
VL: EIVLTQSPATLSLSPGERATVSCRASQSVSNFLAWYQQKPGQAPRLLIHDASNRATGIPARFSGSGSGTDFTLTISSLEPEDFAVYYCQQRRNWPPVTFGQGTRLEIK
B16: S304 (antibody, V domains shown)
VH: EVQLVESGGGLVQPGGSLRLSCAASGFTFSSYDMHWVRQTTGKGLEWVSTIGTAGDTYYPDSVKGRFTISREDAKNSLYLQMNSLRAGDTAVYYCARGDSSGYYYYFDYWGQGTLLTVSS
VL: DIEMTQSPSSLSAAVGDRVTITCRASQSIGSYLNWYQQKPGKAPKLLIYAASSLQSGVPSRFSGSGSGTDFTLTISSLQPEDFAIYYCQQSYVSPTYTFGPGTKVDIK

Target: SARS-CoV-2 Omicron (B.1.1.529) RBD (SARS-CoV-2 Omicron B.1.1.529 (BA.1), strain)

Binder	binding result
B1	binds
B2	binds
B3	binds
B4	binds
B5	binds
B6	binds
B7	binds
B8	binds
B9	binds
B10	binds
B11	binds
B12	binds
B13	binds
B14	binds
B15	binds
B16	binds
